Assay results published in patent US20190119696A1 (YEDA RESEARCH AND DEVELOPMENT, published 2019).

Target: T1, APS1 (small subunit of ADP-glucose pyrophosphorylase, AGPase; AT5G48300), endogenous in Arabidopsis plants (Arabidopsis thaliana, UniProt P55228 72-520, limits assumed)
T1 construct: Endogenous plant protein
T1 sequence (looked up): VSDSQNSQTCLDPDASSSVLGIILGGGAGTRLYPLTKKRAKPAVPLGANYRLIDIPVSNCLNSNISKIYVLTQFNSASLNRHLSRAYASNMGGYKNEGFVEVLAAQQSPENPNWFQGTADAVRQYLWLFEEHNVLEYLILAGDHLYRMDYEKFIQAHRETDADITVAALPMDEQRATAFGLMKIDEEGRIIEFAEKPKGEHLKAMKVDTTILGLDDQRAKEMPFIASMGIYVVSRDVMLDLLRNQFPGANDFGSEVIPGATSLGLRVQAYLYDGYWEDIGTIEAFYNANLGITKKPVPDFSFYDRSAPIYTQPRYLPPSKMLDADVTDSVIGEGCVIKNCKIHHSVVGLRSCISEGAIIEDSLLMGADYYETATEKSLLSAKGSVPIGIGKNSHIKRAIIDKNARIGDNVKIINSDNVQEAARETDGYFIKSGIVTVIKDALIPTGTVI
Assay: in planta trapping of intermolecular disulfide reaction intermediates; non-reducing SDS-PAGE, anti-HA immunoblot

binding result: no binding
B1: ACHT4ΔC (Arabidopsis ACHT4 lacking the 47-amino acid C-terminus), fused to the HA3 affinity tag (enzyme, not shown: small tags and cut ends)
chain: SSAITAQTTLRIGTAQKWWEKGLKDNMREISSAQELVDSLTNAGDKLVVVDFFSPGCGGCKALHPKICQFAEMNPDVQFLQVNYEEHKSMCYSLGVHVLPFFRFYRGSQGRVCSFSCTNATIKKFRDALAKHGPDRCSLGPTKGLEEKELVALAAN
notes: also called AtACHT4ΔC; AtACHT4-C-Del
